This data set is described as follows: soluble fraction after stress (log2 fold change); higher = more stays soluble; pooled small domains, quantitative proteomics. Particulars: stress: 50 degC. The method in brief:
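After stress at 50°C, the amount of each protein still soluble was measured. This was done on pooled custom libraries of small protein domains, using high-throughput quantitative proteomics. The figure given is a base-two log fold change and stands for aggregation propensity, with higher values meaning more protein stays in solution.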
As for “HMIEDMTINIEERLSLNGDIKKSEYILQYIKPDFIRKVILSPELNKGEIYIYDSKKKVMYLPLFDQVSEEI”, the “soluble fraction (log2)” value was -0.463.

Regarding “HMGVPELHKGEIVQAVVEKVLGEGLLRVNLKGMTVEAATSLRLNPGQQLLLRSEGIENGRQVLR”, the “soluble fraction (log2)” value is 0.00868.

In the case of “HMTPPLSKIRNMTPDQQRSSVIEARKKGYNLLQLEGLAKAQGATPADLLVLRNAWAQSEFDQKR”, the “soluble fraction (log2)” value was determined as 0.149.

As for “HMEKPYTPPANLNEIQSYEELSKAVQYYNKVKDAATTDADRLKAQQSIDTLEDMRKAWDAASST”, the “soluble fraction (log2)” value is 0.072.

As for “HMSEQSEALRTGLDQLPINQRTALTLFHLHELNQSEVAKIMNISVGAVESLLFRGRQKMKQLLTSD”, the “soluble fraction (log2)” value was -0.725.

Regarding “HMSTRLIGEIGVVTKDLGAGLKENGSIQIGREEWPAETKDMEHIPMGTRVKVIHIEGTRLVVEA”, the “soluble fraction (log2)” value was -0.629.

On to “HMNRGITVIVNNEEIKMKEKAQYVVVDIFDYIDFDLTVPKGSINITLNGENTPYTASIKDGDVIEVFW”, for which the “soluble fraction (log2)” value was -0.266.

For the sequence “HMQSRYALLAGMLRARITEGDWVPGSAIPAETVLAKEHGVALGTMRQAIALLVSQGLLERQHGRGTFVRS”, the “soluble fraction (log2)” value was -1.16.

Regarding “HMITIDADTGKRVYTRKEVADLVGASTQSIRLWEDAGAIPASVRDEGGYRYWYEEDLEAIKAYAS”, the “soluble fraction (log2)” value is -0.19.

Regarding “HMIYKLTLLRDLPEAKAGFDFYLRGGLASHDGEEWFSWVTREPIYARLYWLYVEKREEWVLVEETDI”, the “soluble fraction (log2)” value was -4.46.

As for “HMVRSEDLIGLQGRITLATDVETRGFVELSVKGSLLRRPALSLKGPLAKNTAVVVTASNDHTLEVEAL”, the “soluble fraction (log2)” value was -0.573.

“HMDNEIRIPLPSLQRDGFSIGTREDDGSQLVRIMSAGSFGGMIRSFRLPEGMRIEGAKWEGEIVSIRL”: the “soluble fraction (log2)” value is 0.0774.

Consider “HMGDITALMPGKVIQIIVKEGQEIKVGDPLIVIESMKMENTISSEVNGTIKSINIQIDDNVQFDQVLFTV”, for which the “soluble fraction (log2)” value was -2.1.

As to “HMPTSPKANFLKELPQEFTRKQAVTIGDKLNIKERTVDNYLAKLEQAGYLVKPKAGYYQKIKS”, the “soluble fraction (log2)” value came to 0.128.

Take “HMLWTDTKYVTVPDFVGKEPKEIESSYLYNIEYHGEGTKVISQQPAAFSRTIEGGTVRLYLG”: the “soluble fraction (log2)” value was 0.0884.

As to “HMNVKVSVDDIARPGLMASGRVTFADGNRGMWYVDEMGRLGIDPEVEGYQPSEADIQAFQRELQSVMES”, the “soluble fraction (log2)” value amounted to 0.102.

With “HMAGTPAVVKWFNPTKGFGFVTPREAGSDALLHASVLAKQGKRWLQEGTVVEVVLEEGPKGLVVSEVLTIE”, the “soluble fraction (log2)” value was -0.457.

Consider “HMYRYGETPMVVVPDLIGRTVSDIYEEMNADFRLEKFGNGNTVISQAPKPGERVEQGSVIRVYLSGQDQ”, for which the “soluble fraction (log2)” value was 0.157.

For “HMQTFNADDIEPIIKEILQENPKAISDFLTGNENVVKFLLGQVMKNTKGKANPKVIEELLINQLRELNN”, the “soluble fraction (log2)” value was 0.00183.

For “HMIDYTDTSAVKDSAAVAGRVREMINEGVPIADVNAFIRSASENGLISDDSARRLRYMNDSR”, the “soluble fraction (log2)” value is 0.0307.

On to “HMESKPLTPSEIKKLRMDANMTQAGLAEVLGMTVKAVEAWESGRNIPSGAADKILRVMQKHPSVIGMMQS”, for which the “soluble fraction (log2)” value is 0.156.

Take “HMRWAAIMGREVAAHSTPESLVEGKLHIRTDTTAWATQLRLMSADIVRRLNEVLGEGTVLEVDVRG”: the “soluble fraction (log2)” value is -1.96.

Regarding “HMGAVVSPMPGVILDIKVKEGDSVSEGQTVIILEAMKMENEIVSEFTGTVSAIRVKKGDTVDTDAVLVEI”, the “soluble fraction (log2)” value was -0.393.

For “HMWWTPIILRDALFGVQRFEDFQKNLDVSRATLSSRLTRLVDEGLMEKVEYQQHPVRHEYVLTEKGR”, the “soluble fraction (log2)” value was -0.108.

In the case of “HMARYSMLEEQLLQLINKHGTMSTPKLVEATGAPRSTVTYQLRKLLESGTIERTQPARSPKQSYRIKS”, the “soluble fraction (log2)” value is -0.238.

In the case of “HMDAPRFAAGDAVRVAGLVSKPQHNGRAGSVLSYDPVSLRYIVKVDGEDEPLKLKPENVLMPA”, the “soluble fraction (log2)” value came to 0.136.

Take “HMNMPDVTVEWVKEQQAKFGLTDSDLAKSVNIDNANLARIFNQRGLTKIHKALFYYFFRAYGLQ”: the “soluble fraction (log2)” value is -2.4.

Take “HMGGFSVTAEAFDGTPEVGKTVGFTAGSTKIKVEDTKGDATFGTILEKETVGFGEGKYTYFYIGL”: the “soluble fraction (log2)” value was -0.223.

In the case of “HMPVAPTYALTVKTDPPSANVRLLNSPTPYQPGVRLPSGNYDIEVTQSGYATRKESVRIADRDVALNIAL”, the “soluble fraction (log2)” value amounted to 0.163.

Turning to “HMSKSVEQRRQQIVAWVKEHGQSQVEDLAVRFATSEVTIRKDLAALSQQGLLIRQFGGAVPVPA”, the “soluble fraction (log2)” value was -0.661.

Take “HMNFHLEHHIAELLYRSIRGELSDFERQELNQWRSDSPMHETLFMRLQDDEYIDEELGVFIK”: the “soluble fraction (log2)” value was -1.99.

On to “HMIAASPVGGIDRVLELLDARGQRVAWIEASGTEGGQRLRLGWIDAQGAERHGAWVPWSADDLLLYA”, for which the “soluble fraction (log2)” value is -0.387.

As for “HMNLFKAPMPGLIRTIVVAEGQEVKKGDVILILEAMKMENALKSPADLVVKSIKVQQGQAVEKNQLLIEF”, the “soluble fraction (log2)” value was -0.0526.

Turning to “HMGPWTETAAKGDAVSKRMLITWLQENADAEFLAAQKLTGQATSVAKRVTKDQLVELYLSVTTAA”, the “soluble fraction (log2)” value was -0.53.

Consider “HMKQGKGIIVVDGKLMPEDFNVATLSLDEVESITVLKGEKAVALYGEKAKEREVLLITTQKG”, for which the “soluble fraction (log2)” value was determined as 0.423.

As for “HMFHGEGVQANNIQAYIVLKMAAVNGAEDALDTADEVSEKMSREDLETATQVLGQIFRKYLMELQSA”, the “soluble fraction (log2)” value was -1.2.

As for “HMTVVLPGESLTVNIIQEGKELGQGVGYLDDGTMVVIEDGRRYIDQTIEVTVTRVLQTVAGRMIFAQLT”, the “soluble fraction (log2)” value was -0.646.

In the case of “HMPERMLEPLLNGNEIMKVTQLQPGPKVGLIRDALLQAQISGDVTDTESAKAFVQDYAKRNI”, the “soluble fraction (log2)” value was 0.06.

Regarding “HMESIAEIDRMNAKIFMDEFQDSLSIMQKTTNPETFFSRYDLAMERLDNMVELQQKGIKFTSDLSSLKAQ”, the “soluble fraction (log2)” value was found to be 0.0074.

Consider “HMPAERLSMRKIYEILRLKYGHGLSNREVALSVSVSRSTVADYLLRAQAAGLSWPLPDGLDETGLEQRLFP”, for which the “soluble fraction (log2)” value is -2.02.

On to “HMAVRLADMAAEKIRKMIIENKFDAGEPLSEMRLAEMFNVSRTPIREAIAILEQEGLLTTVHGKGAFIS”, for which the “soluble fraction (log2)” value was -0.367.

With “HMVQQTEEDVIRDMYVEGKIFTIGEEVTDTYTGVTGKIIRRGTNYVTFMSEDGETYKKWLYEIELA”, the “soluble fraction (log2)” value was -1.

With “HMLFVKLSDAQRSMFGAKLARDARIQSEYAQKLPSENYEVFGKALADMLLDETHFKTFYPLLVEYGYTQPK”, the “soluble fraction (log2)” value was -0.406.

Take “HMPLTKKLETLFSLFPKYEKELKKKGVTRIHVWANYKEEYPDGIGRSQFIHYYSFWKKQVSP”: the “soluble fraction (log2)” value was -0.118.

Consider “HMESSYKGFILDIETRQFSPTLIQRRGIAINPSGIVETTTEFSFATQEKVLIEDLKLIIDELDLRADY”, for which the “soluble fraction (log2)” value was -4.07.

On to “HMSLPQSKDAVITILRTLPQLDTRAPEVYKLLGPHALDIILEDPEQVAKKINHVGVATAKLWQQALLGFK”, for which the “soluble fraction (log2)” value was -0.2.

Turning to “HMNNLVGKTKVLKSNTNIYAYKTMSGKFYSYLPNTRVRVLQDLGYINYIEVIATKRRGYVYENVY”, the “soluble fraction (log2)” value was -0.0937.

Regarding “HMTELLTPKQRQVFELALREGYYDVPRRTSITEMARLLGVAKSTLSAQMHRMEATVMSTFAEEIRKQ”, the “soluble fraction (log2)” value is -1.74.

Take “HMFLDKDTLNQLYRFGIALTGNEQDSQDVLHTAIERFLRNKPQQINQQAAYIRTIMRNYWYDELRKLKTQ”: the “soluble fraction (log2)” value is -1.61.

Turning to “HMITLKKRRQEAILEIIEKYDLSTQDELLQKLKDSGFDATQATVSRDIKELRLVKTMGANGQYKYAVT”, the “soluble fraction (log2)” value was -0.403.

Take “HMDPTIRRGELIDAASRLFLSKGYAATSVRDILDEVGNRTASPSVFYYYFKSKEEIYQAVLRRHSE”: the “soluble fraction (log2)” value was -0.847.

Turning to “HMGQAAHYEGVKGDGESDTDVISRVLTAAGAEAQKDDIFVVKELIAGGKYSYTAYVYDGSVWAAM”, the “soluble fraction (log2)” value is -0.266.

Regarding “HMNMDLGHSISKLRTDANLTQEKFAQILNVSRQTVQKWEYGEALPDIHNIIKIAKFFNISLDALVLRS”, the “soluble fraction (log2)” value was -0.159.

For “HMSMSVLFSELDQKDAGVIVEKLKERKIPYELQSGGSAIMVPANVLHETRLQLAAEGLPQSS”, the “soluble fraction (log2)” value worked out at 0.0439.

Consider “HMSDMIGQNIRRLRTEKQMTQKALADKLFVTAQAVSRWENGEVEPSLSTVTEIARIFNVSADEILGI”, for which the “soluble fraction (log2)” value was -0.0125.

For the sequence “HMRKEEFIRELVLELKQNVSEQVILEQKRFYEEYILTEVRGGKTEEEVIASLSEPRLLAKSIIDAAEAGGD”, the “soluble fraction (log2)” value is -0.155.

“HMENDPYEILGIARSASDDEIKAKYRALTRENHPDILMAKGVPQEFIDLANEKMAVINAAYDKIEKER”: the “soluble fraction (log2)” value turned out to be 0.292.

In the case of “HMSGEPKNERQIEVPDVTKKSIREANNILTSEGLRLRIEGTGLAVSQKPAAGTMVEPDTIITVTFQAP”, the “soluble fraction (log2)” value was 0.35.

With “HMSVLLDDLSPREREILQLVVEGHSSTKIAGMLGLASATVDTYRSRLMAKLHIDNLPDLVRFAIRHGLIS”, the “soluble fraction (log2)” value was -1.22.

With “HMKPSISKIYALWGVLQRSGKIKSQDKAALDAFVRKYTGVDHVKWLDESQARKIIEILKQMIA”, the “soluble fraction (log2)” value is -0.458.

On to “HMPSGLFEPIKKSELSIESIDLLKDQIRAFKQADIRITFGFLLDLITKGENPAYVNASKLFEQAWER”, for which the “soluble fraction (log2)” value was found to be 0.0685.

Regarding “HMGSYVVQLGAFAIRANAEKLAREVDGSIATSGRFSLVRVGPFTSRGQAEQALAKLRARGYSDALIHSL”, the “soluble fraction (log2)” value was -0.224.

For the sequence “HMETPLSAADFKIVFGEEYEIGTDANGLPKMGSRINRQLQNRFLTWASVNKRKATMSAYQDWVASDPAAQ”, the “soluble fraction (log2)” value is -0.336.

“HMVQIQDIAFSEFLNELEKGNILDVNIKGDLINGNMLDGKKFKTYAPYDPSLVEKLSKQNVTINVEPVN”: the “soluble fraction (log2)” value is 0.0938.

For “HMSGRPPTYTAEERSAVIAAALSRPADLGLPFASWTLDRLVAYLGEKGIGMKRSRMSEVLLAEGLKW”, the “soluble fraction (log2)” value was -1.25.

Consider “HMERFRQVNAGMTRDDIYQLLGKPTEKTPFPLKNEEVWSWRHQADGQTVALFNIHLDPDGRVTTTSQSMDL”, for which the “soluble fraction (log2)” value is 0.021.

For “HMYSMSAPMPGVILEIKVAPGDQVNKGDVVMVLEAMKMKNDLHAARTGTVESIDINSGEQVKYGQVLLRFV”, the “soluble fraction (log2)” value is -0.14.

With “HMHLTRYLHTMIRAANLDDTLDFFVEKLGLIEAYRYSNEAGRFTLVFLSAPDDLESAQSRQAPLVEITYN”, the “soluble fraction (log2)” value is -0.107.

With “HMGKRGKEMQTAVLAILRASDRPYSAYELLESLKDIYPKIAPPTVYRALAALTQRGQIRRLESLNAFI”, the “soluble fraction (log2)” value is -0.325.

The values above are taken from the domain aggregation screens of Martell et al. (2025).
